The term koff denotes the rate constant with which the complex falls apart. High values mean fast dissociation, low ones slow dissociation. By Kd is commonly meant the equilibrium constant for the complex coming apart. A word on the Ki: it is a dissociation constant, usually derived from enzyme kinetics or from competition with a known ligand.

Experiment [1] has as its target T1, PSD-95-12, purified tandem PDZ domains of PSD-95 (rat, UniProt P31016 61-249). The experiment in a line: SPR. In general terms: Surface plasmon resonance follows binding to a sensor surface in real time, without labels.
Experiment [2] addresses T1, PSD-95-12, purified tandem PDZ domains …. As to the kind of experiment: ITC.
Experiment [3] has the same target.
The target in experiment [4] is SAP97-12, purified tandem PDZ domains of SAP97 (rat, UniProt Q62696 220-408). As to the kind of experiment: competition against divalent ligand.
Chain of SAP97-12, purified tandem PDZ domains of SAP97 (Q62696 220-408): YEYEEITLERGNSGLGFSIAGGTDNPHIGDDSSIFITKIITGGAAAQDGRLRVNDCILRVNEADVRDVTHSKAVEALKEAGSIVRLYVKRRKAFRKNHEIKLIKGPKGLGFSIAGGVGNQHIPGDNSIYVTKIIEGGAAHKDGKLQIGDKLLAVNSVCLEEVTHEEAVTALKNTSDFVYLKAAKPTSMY
For experiment [5], the target named is T2, SAP102-12, purified tandem PDZ domains of SAP102 (rat, UniProt Q62936 145-333).
T2 chain: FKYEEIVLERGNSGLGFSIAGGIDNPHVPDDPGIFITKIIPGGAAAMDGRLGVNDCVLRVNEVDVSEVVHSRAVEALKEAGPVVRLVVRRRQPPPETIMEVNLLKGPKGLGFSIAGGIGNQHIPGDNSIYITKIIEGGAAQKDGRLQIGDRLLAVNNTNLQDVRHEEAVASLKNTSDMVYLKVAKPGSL
The experiment in a line: competition against divalent ligand.

Experiment [6] has as its target PSD-93-12, purified tandem PDZ domains of PSD-93 (rat, UniProt Q63622 93-282). As to the kind of experiment: competition against divalent ligand.

T1 sequence (P31016 61-249): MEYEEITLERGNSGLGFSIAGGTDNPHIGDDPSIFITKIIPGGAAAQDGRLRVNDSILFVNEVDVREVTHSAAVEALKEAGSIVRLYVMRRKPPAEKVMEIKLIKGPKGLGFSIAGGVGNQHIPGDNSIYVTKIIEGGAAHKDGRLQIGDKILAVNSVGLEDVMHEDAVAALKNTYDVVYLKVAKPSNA
Chain of PSD-93-12, purified tandem PDZ domains of PSD-93 (Q63622 93-282): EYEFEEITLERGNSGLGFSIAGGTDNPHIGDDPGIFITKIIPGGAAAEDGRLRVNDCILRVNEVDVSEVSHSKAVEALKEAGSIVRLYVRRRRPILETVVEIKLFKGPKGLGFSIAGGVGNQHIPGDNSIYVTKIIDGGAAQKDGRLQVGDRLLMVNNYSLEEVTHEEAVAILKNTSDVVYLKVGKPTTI

B1: biotinylated Xph20 (designed binder)
chain: SSVSSVPTKLEVVAATPTSLLISWDAVAKNVKVGYYRITYGETGGNSPVQEFTVPGSSSTATISGLKPGVDYTITVYANGVLSKMVLPISINYRT
modifications: biotin on the biotin acceptor peptide
Turning to B1, the koff in experiment [1] turned out to be 0.068 s⁻¹.

B2: Xph18, evolved ^10FN3 domain (recombinant) (designed binder)
chain: SSVSSVPTKLEVVAATPTSLLISWDAHSRMAWVNYYRITYGETGGNSPVQEFTVPGSSSTATISGLSPGVDYTITVYANGGGFRRGMAPISINYRT
B2 displayed a Kd in experiment [2] of 820 nM.

B3: Xph15, evolved ^10FN3 domain (recombinant) (designed binder)
chain: SSVSSVPTKLEVVAATPTSLLISWDAGPRNVSYYRITYGETGGNSPVQEFTVPGSSSTATISGLSPGVDYTITVYASGHVSTLMTPISINYRT
In experiment [2], B3 displayed a Kd of 2200 nM.

B4: Xph20-ETWV (designed binder)
chain: MASHHHHHHHHHHENLYFQSGSGSSVSSVPTKLEVVAATPTSLLISWDAVAKNVKVGYYRITYGETGGNSPVQEFTVPGSSSTATISGLKPGVDYTITVYANGVLSKMVLPISINYRTLEGGSGGSGGSGGSGGSGGSGGSGGSGGSGGSGGSGGSGTETWV
B4: the inhibitory constant (Ki) amounted to 36 nM in experiment [3], 900 nM in experiment [4], 1440 nM in experiment [5] and 261 nM in experiment [6].

(Values after publication PMC6778148 (2019).)
